How the values were obtained:
rat DRG neurons = assay: Rheobase shift and evoked action potentials in rat DRG neurons (current clamp); assay type: cell-based
Experimental: Using whole cell manual patch clamp electrophysiology in HEK293 cells, rat DRG neurons and rat hippocampal neurons, the EC50 of the various engineered receptors disclosed herein to Ach and non-native ligands was measured using the Hill equation with peak current measurements from escalating doses of ligand. The rheobase shift was also measured in rat DRG neurons, which reflects the efficacy of the receptors. To calculate the rheobase, first, the amount of current that can produce an action potential was determined. Then the ligand was added, followed by a step wise increase in the current injected up to 700 pA.
For manual patch clamp experiments, Cells plated on coverslips were visualized at 10× and 40× on an inverted fluorescence microscope (Olympus). Recordings were made with an Axopatch 200B amplifier and Digidata 1550B (Molecular Devices) at RT using 3-6 MOhm glass patch electrodes (Sutter, BF150-86-10). Unless otherwise stated, recordings were made in extracellular solution (ECS) containing: 140 mM sodium chloride, 4 mM potassium chloride, 1 mM magnesium chloride, 2 mM calcium chloride, 10 mM HEPES, and 10 mM D-(+)-glucose (pH=7.3 with sodium hydroxide, osmolarity=305−315 mOsm). An 8-line reservoir (AutoMate Scientific) in combination with an 8-channel zero-dead-volume perfusion pencil (AutoMate Scientific) was used for perfusion. Data was acquired using pClamp software (Molecular Devices). Traces were either analyzed in Clampfit (Molecular Devices) or using custom Python code. Plotting and statistics were performed in GraphPad Prism.
DRG rheobase experiments were performed in current clamp mode using a potassium-based internal solution containing: 100 mM potassium D-gluconate, 28 mM potassium chloride, 1 mM magnesium chloride hexahydrate, 5 mM magnesium ATP, 10 mM HEPES, and 0.5 mM EGTA (pH=7.2 with potassium hydroxide, osmolarity=290-295 mOsm, calculated liquid junction potential=−13.5 mV). To measure DRG input resistance and rheobase, 500 ms current steps (−200 pA to 700 pA) were applied the membrane in the presence and absence of a compound. No holding current was applied to the membrane for cells included in the final datasets. Data were acquired at 10 kHz, with Bessel filter at 2 kHz and series resistance compensation at 100%. Rheobase was defined as the smallest depolarizing current injection required to cause an action potential to fire in the cell. In a subset of cells, the rheobase was ambiguous, since the action potential appeared to be graded in amplitude. In these cases, a […] of the trace clarified the rheobase. Input resistance was measured from the negative current injections, calculated as the difference in membrane potential at steady state divided by the current injection amplitude and then averaged across the four negative current steps for each recording. Resting membrane potential was measured from the first 100 ms of each sweep, averaged for each recording, and corrected for liquid junction potential. One-way ANOVA with multiple comparisons was used to test for significance of difference in rheobase and input resistance between baseline, drug, and wash conditions.

Lenti-X 293T cells = assay: YFP fluorescence quenching anion reporter plate reader assay of engineered receptors stimulated with acetylcholine or a non-native ligand; assay type: cell-based
In short: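 YFP quench was followed for about 1 min 43 s after ligand delivered in iodide-based ECS, pH 7.2. Values are end-of-read fluorescence (last 10 s) divided by the pre-ligand baseline (15 s). Cells were LX293T, transfected with receptor DNA a day before the assay.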

B1: CODA1027: engineered chimeric LGIC receptor, R101F, L131D in SEQ ID NO: 33 (protein)
chain: MRCSPGGVWLALAASLLHVSLQGEFQRKLYKELVKNYNPLERPVANDSQPLTVYFSLSLLQIMDVDEKNQVLTTNIWLQMSWTDHYLQWNVSEYPGVKTVFFPDGQIWKPDILLYNSADERFDATFHTNVDVNSSGHCQYLPPGIFKSSCPMDLKNFPMDVQTCKLKFGSWSYGGWSLDLQMQEADISGYIPNGEWDLVGIPGKRSERFYECCKEPYPDVTFTVTMRRRMGYYLIQMYIPSLLIVILSWISFWINMDAAPARVGLGITTVLTMTTQSSGSRASLPKVSYVKAIDIWMAVCLLFVFSALLEYAAVNFVSRQHKELLRFRRKRRHHKSPMLNLFQEDEAGEGRFNFSAYGMGPACLQAKDGISVKGANNSNTTNPPPAPSKSPEEMRKLFIQRAKKIDKISRIGFPMAFLIFNMFYWIIYKIVRREDVHNQ
modifications: synthetic sequence of chimeric LGIC
How did the “Rheobase Shift; Rat DRG Neurons, +TC-5619 @ EC90” value (rat DRG neurons; +TC-5619 @ EC90) turn out when B1 was run?
Its value is 638 ± 63 pA.

What about the “Rheobase Shift; Rat DRG Neurons, Baseline” value (rat DRG neurons; Baseline, no ligand) of the same molecule?
Its value is 100 ± 23 pA.

And the “YFP fluorescence quenching using CNL001” value (Lenti-X 293T cells; 1 nM CNL001, first column)?
The value was 24.049%.

And the “YFP fluorescence quenching using CNL001” value (Lenti-X 293T cells; 1 nM CNL001, second column)?
Its value is 36.755%.

And the “YFP fluorescence quenching using TC-5619/Bradanicline” value (Lenti-X 293T cells; 1 nM brd)?
The value was −10.07%.

And the “YFP fluorescence quenching using TC-5619/Bradanicline” value (Lenti-X 293T cells; 3 nM brd)?
Its value is −0.8%.

And the “YFP fluorescence quenching using Varenicline” value (Lenti-X 293T cells; 3 nM var, first column)?
The value was −3.367.

What about the “YFP fluorescence quenching using Varenicline” value (Lenti-X 293T cells; 3 nM var, second column) of the same molecule?
The value was −0.431.

What about the “YFP fluorescence quenching using CNL001” value (Lenti-X 293T cells; 10 nM CNL001, first column) of the same molecule?
The value was 52.927%.

What about the “YFP fluorescence quenching using CNL001” value (Lenti-X 293T cells; 10 nM CNL001, second column) of the same molecule?
Its value is 61.449%.

What about the “YFP fluorescence quenching using TC-5619/Bradanicline” value (Lenti-X 293T cells; 10 nM brd) of the same molecule?
Its value is 1.74%.

And the “YFP fluorescence quenching using TC-5619/Bradanicline” value (Lenti-X 293T cells; 30 nM brd)?
Its value is 53.95%.

And the “YFP fluorescence quenching using Facinicline” value (Lenti-X 293T cells; 30 nM fac)?
The value was −10.05.

What about the “YFP fluorescence quenching using Varenicline” value (Lenti-X 293T cells; 30 nM var, first column) of the same molecule?
Its value is −0.761.

And the “YFP fluorescence quenching using Varenicline” value (Lenti-X 293T cells; 30 nM var, second column)?
The value was 2.989.

What about the “YFP fluorescence quenching using CNL001” value (Lenti-X 293T cells; 50 nM CNL001, first column) of the same molecule?
The value was 67.308%.

What about the “YFP fluorescence quenching using CNL001” value (Lenti-X 293T cells; 50 nM CNL001, second column) of the same molecule?
The value was 68.77%.

What about the “YFP fluorescence quenching using ABT-126” value (Lenti-X 293T cells; 50 nM abt) of the same molecule?
Its value is −11.89%.

What about the “YFP fluorescence quenching using CNL001” value (Lenti-X 293T cells; 100 nM CNL001, first column) of the same molecule?
The value was 69.049%.

What about the “YFP fluorescence quenching using CNL001” value (Lenti-X 293T cells; 100 nM CNL001, second column) of the same molecule?
The value was 71.613%.

And the “YFP fluorescence quenching using CNL002” value (Lenti-X 293T cells; 100 nM CNL002)?
Its value is 7.75%.

What about the “YFP fluorescence quenching using ABT-126” value (Lenti-X 293T cells; 100 nM abt) of the same molecule?
The value was −16.07%.

What about the “YFP fluorescence quenching using AZD-0328” value (Lenti-X 293T cells; 100 nM azd0328) of the same molecule?
Its value is −4.76%.

What about the “YFP fluorescence quenching using ABT-126” value (Lenti-X 293T cells; 300 nM abt) of the same molecule?
The value was −11.21%.

And the “YFP fluorescence quenching using AZD-0328” value (Lenti-X 293T cells; 300 nM azd0328)?
Its value is −7.52%.

And the “YFP fluorescence quenching using TC-5619/Bradanicline” value (Lenti-X 293T cells; 300 nM brd)?
Its value is 76.74%.

And the “YFP fluorescence quenching using Facinicline” value (Lenti-X 293T cells; 300 nM fac)?
The value was −12.54.

And the “YFP fluorescence quenching using Varenicline” value (Lenti-X 293T cells; 300 nM var, first column)?
The value was 2.966.

What about the “YFP fluorescence quenching using Varenicline” value (Lenti-X 293T cells; 300 nM var, second column) of the same molecule?
The value was 10.211.

What about the “YFP fluorescence quenching using Varenicline” value (Lenti-X 293T cells; 500 nM var, first column) of the same molecule?
The value was 15.278.

And the “YFP fluorescence quenching using Varenicline” value (Lenti-X 293T cells; 500 nM var, second column)?
Its value is 20.84.

And the “YFP fluorescence quenching using CNL001” value (Lenti-X 293T cells; 1 uM CNL001, first column)?
Its value is 71.811%.

And the “YFP fluorescence quenching using CNL001” value (Lenti-X 293T cells; 1 uM CNL001, second column)?
Its value is 69.907%.

What about the “YFP fluorescence quenching using CNL002” value (Lenti-X 293T cells; 1 uM CNL002) of the same molecule?
The value was 61.97%.

What about the “YFP fluorescence quenching using ABT-126” value (Lenti-X 293T cells; 1 uM abt) of the same molecule?
The value was −9.38%.

What about the “YFP fluorescence quenching using TC-6987” value (Lenti-X 293T cells; 1 uM tc6987) of the same molecule?
The value was 0.88.

What about the “YFP fluorescence quenching using Varenicline” value (Lenti-X 293T cells; 1 uM var, first column) of the same molecule?
The value was 37.104.

What about the “YFP fluorescence quenching using Varenicline” value (Lenti-X 293T cells; 1 uM var, second column) of the same molecule?
The value was 42.439.

And the “YFP fluorescence quenching using TC-6987” value (Lenti-X 293T cells; 10 uM tc6987)?
Its value is 56.27.

What about the “YFP fluorescence quenching using CNL002” value (Lenti-X 293T cells; 30 uM CNL002) of the same molecule?
Its value is 65.77%.

What about the “YFP fluorescence quenching using AZD-0328” value (Lenti-X 293T cells; 30 uM azd0328) of the same molecule?
The value was 74.9%.

What about the “YFP fluorescence quenching using Facinicline” value (Lenti-X 293T cells; 30 uM fac) of the same molecule?
The value was 70.96.

What about the “YFP fluorescence quenching using TC-6987” value (Lenti-X 293T cells; 500 uM tc6987) of the same molecule?
The value was 71.3.

And the “percent quench of YFP fluorescence, 30 nM TC-6683” value (Lenti-X 293T cells; TC-6683 30 nM)?
The value was 1.189%.

What about the “percent quench of YFP fluorescence, 300 nM TC-6683” value (Lenti-X 293T cells; TC-6683 300 nM) of the same molecule?
The value was 0.939%.

What about the “percent quench of YFP fluorescence, 3 uM TC-6683” value (Lenti-X 293T cells; TC-6683 3 uM) of the same molecule?
The value was 1.327%.

And the “percent quench of YFP fluorescence, 30 uM TC-6683” value (Lenti-X 293T cells; TC-6683 30 uM)?
Its value is −0.845%.

What about the “percent quench of YFP fluorescence, 100 uM TC-6683” value (Lenti-X 293T cells; TC-6683 100 uM) of the same molecule?
Its value is −3.136%.

What about the “percent quench of YFP fluorescence, 10 uM ach” value (Lenti-X 293T cells; acetylcholine 10 uM) of the same molecule?
The value was −1.62%.

And the “percent quench of YFP fluorescence, 50 uM ach” value (Lenti-X 293T cells; acetylcholine 50 uM)?
The value was −1.6%.

What about the “percent quench of YFP fluorescence, 100 uM ach” value (Lenti-X 293T cells; acetylcholine 100 uM) of the same molecule?
The value was −2.62%.

What about the “percent quench of YFP fluorescence, 300 uM ach” value (Lenti-X 293T cells; acetylcholine 300 uM) of the same molecule?
Its value is −6.12%.

What about the “percent quench of YFP fluorescence, 500 uM ach” value (Lenti-X 293T cells; acetylcholine 500 uM) of the same molecule?
Its value is −7.71%.

What about the “percent quench of YFP fluorescence, 1 mM ach” value (Lenti-X 293T cells; acetylcholine 1 mM) of the same molecule?
The value was −5.73%.

What about the “percent quench of YFP fluorescence, 3 mM ach” value (Lenti-X 293T cells; acetylcholine 3 mM) of the same molecule?
The value was 33.69%.
